Assay [1] has as its target T1, Drp1 (endogenous, mouse striatal cells and mouse striatum) (mouse, UniProt Q8K1M6 1-736, limits assumed).
T1 construct: Endogenous protein in lysates; also called Dynamin-related protein 1
Put plainly: biotin-DA1 with total lysates of HD striatal cells, streptavidin beads, western blot. For orientation: In western blotting, separated proteins are transferred to a membrane and probed.

In assay [2] the target is ClpP (mitochondrial matrix protein, endogenous in HD striatal cells) (mouse, UniProt O88696 53-272). Described as above.
ClpP (mitochondrial matrix protein, endogenous in HD striatal cells), sequence (O88696 53-272 limits assumed): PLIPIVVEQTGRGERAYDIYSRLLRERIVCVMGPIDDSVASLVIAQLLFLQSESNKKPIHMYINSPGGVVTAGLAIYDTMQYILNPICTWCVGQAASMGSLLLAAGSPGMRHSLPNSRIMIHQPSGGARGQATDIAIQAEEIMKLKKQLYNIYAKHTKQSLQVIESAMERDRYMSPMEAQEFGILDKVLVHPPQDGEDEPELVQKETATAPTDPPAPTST
Assay [3] deals with T2, VDAC (OMM protein, endogenous in HD striatal cells) (mouse, UniProt Q3U6K8 2-283).
T2 construct: also called voltage-dependent anion channel
The assay is described as above.

The target of assay [4] is T3, GST-Drp1 recombinant protein (UniProt O00429-3 1-710, limits assumed).
T3 construct: Bought (Abnova); also called Dynamin-related protein 1; not shown: GST tag
T3 sequence (O00429 other isoform, or with tags, fused parts or gaps limits assumed): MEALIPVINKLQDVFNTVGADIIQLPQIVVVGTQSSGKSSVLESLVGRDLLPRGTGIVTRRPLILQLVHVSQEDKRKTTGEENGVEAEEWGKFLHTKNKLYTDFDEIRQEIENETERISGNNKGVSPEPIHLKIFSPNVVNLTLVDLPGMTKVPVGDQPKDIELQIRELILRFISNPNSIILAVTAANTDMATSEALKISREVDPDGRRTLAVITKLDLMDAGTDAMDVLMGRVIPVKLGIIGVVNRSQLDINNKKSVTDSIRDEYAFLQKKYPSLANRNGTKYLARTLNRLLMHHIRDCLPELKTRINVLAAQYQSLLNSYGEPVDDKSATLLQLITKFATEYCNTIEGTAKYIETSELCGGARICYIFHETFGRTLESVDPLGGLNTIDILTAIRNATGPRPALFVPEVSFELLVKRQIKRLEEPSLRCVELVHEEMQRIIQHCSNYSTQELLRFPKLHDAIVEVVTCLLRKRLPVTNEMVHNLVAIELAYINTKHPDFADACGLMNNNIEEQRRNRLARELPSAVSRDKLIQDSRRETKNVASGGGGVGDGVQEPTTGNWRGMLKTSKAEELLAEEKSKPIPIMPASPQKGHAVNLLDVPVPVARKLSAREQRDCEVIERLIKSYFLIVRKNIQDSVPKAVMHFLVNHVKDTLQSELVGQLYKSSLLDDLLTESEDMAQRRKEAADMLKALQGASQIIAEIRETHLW
Put plainly: biotin-DA1 with purified protein, streptavidin beads, western blot.

In assay [5] the target is T4, ATAD3A-Flag protein (human ATAD3A wildtype, Flag-tagged) (human, UniProt Q9NVI7 1-586).
T4 construct: Made cell-free (TNT system) from pcDNA3.1(+)-ATAD3A-Flag for the in vitro assays, or expressed in HEK293 cells; the same construct is used for both here; also called ATAD3A WT; flag-tagged ATAD3A; not shown: Flag tag
T4 sequence (looked up): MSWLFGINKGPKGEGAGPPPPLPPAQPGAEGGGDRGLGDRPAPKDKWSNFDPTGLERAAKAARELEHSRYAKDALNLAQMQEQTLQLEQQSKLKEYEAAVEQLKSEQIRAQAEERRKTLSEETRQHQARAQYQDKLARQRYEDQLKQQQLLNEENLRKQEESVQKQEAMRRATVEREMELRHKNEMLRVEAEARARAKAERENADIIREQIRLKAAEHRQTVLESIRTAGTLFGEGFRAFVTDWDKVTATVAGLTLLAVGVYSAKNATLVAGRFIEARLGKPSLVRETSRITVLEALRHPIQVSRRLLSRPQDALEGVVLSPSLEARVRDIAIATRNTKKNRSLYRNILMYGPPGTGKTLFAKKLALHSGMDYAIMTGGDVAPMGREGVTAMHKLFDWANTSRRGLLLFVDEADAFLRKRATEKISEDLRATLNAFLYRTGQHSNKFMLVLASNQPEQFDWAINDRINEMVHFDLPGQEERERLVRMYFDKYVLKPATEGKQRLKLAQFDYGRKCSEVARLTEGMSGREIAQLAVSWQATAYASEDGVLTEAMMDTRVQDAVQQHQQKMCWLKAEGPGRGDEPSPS
Put plainly: biotin-DA1 (10 µM) with purified protein, streptavidin beads, western blot.

The target of assay [6] is T5, ATAD3A (endogenous, mouse cells and mouse striatum) (mouse, UniProt Q925I1 2-591).
T5 construct: Endogenous protein in lysates; also called endogenous ATAD3A
T5 sequence (looked up): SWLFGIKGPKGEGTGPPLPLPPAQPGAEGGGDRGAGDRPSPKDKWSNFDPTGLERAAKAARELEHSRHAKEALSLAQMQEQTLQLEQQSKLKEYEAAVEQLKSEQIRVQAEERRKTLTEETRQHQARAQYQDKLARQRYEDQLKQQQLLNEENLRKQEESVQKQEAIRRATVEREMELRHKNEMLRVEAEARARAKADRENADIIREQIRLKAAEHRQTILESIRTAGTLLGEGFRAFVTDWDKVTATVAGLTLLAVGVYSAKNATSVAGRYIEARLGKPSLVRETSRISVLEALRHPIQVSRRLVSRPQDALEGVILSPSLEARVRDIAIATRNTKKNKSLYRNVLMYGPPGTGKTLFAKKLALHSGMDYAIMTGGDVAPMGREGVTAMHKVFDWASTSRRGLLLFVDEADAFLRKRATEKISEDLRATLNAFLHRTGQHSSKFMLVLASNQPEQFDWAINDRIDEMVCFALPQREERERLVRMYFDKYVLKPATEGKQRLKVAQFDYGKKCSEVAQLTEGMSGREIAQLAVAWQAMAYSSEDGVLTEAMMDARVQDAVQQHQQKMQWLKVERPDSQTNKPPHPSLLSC
As to the kind of experiment: biotin-DA1 (10 µM) with total lysates of HD striatal cells, streptavidin beads, western blot.

Where no end group is shown, it is not given here.

T1 sequence (Q8K1M6 whole entry): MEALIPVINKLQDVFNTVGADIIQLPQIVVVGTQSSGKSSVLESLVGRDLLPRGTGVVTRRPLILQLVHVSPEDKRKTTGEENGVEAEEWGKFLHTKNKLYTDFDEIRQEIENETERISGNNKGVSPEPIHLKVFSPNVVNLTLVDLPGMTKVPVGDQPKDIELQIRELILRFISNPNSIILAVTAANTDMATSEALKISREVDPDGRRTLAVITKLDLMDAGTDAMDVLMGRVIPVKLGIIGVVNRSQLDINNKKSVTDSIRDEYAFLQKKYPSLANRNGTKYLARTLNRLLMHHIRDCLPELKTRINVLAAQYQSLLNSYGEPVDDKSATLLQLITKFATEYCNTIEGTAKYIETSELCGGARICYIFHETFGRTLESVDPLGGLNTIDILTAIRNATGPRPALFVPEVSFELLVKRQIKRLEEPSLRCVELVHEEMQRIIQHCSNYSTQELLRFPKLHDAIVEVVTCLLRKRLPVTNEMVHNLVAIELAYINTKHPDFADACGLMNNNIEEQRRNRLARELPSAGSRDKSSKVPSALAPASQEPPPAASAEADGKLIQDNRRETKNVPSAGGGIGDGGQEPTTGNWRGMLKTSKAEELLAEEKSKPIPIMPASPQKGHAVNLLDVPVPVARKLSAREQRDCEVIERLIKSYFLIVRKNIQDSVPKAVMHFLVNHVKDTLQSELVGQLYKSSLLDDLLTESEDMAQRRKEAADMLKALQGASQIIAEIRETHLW

B1: Biotin-conjugated DA1 (peptide)
peptide: YGRKKRRQRRRGGEDKRKT
modifications: also: biotin, position not given here
notes: also called biotin-DA1
As to B1, the binding result in assay [1] is “no binding (tested: 10 µM)”; in assay [2], “no binding (tested: 10 µM)”; in assay [3] it was “no binding (tested: 10 µM)”; in assay [4], “no binding (tested: 10 µM)”; in assay [5] it was “binds”; in assay [6], “binds”.
